The values below come from US6919434.

The data set concerns the molecule itself. Kind of data set: SDS-PAGE under reducing and non-reducing conditions (60 kD against 120 kD). As to the method: The two protein peaks with OCIF activity (peaks 6 and 7) were subjected to SDS-polyacrylamide gel electrophoresis under reducing and non-reducing conditions. Briefly, 20 μL of each peak fraction was concentrated under vacuum and dissolved in 1.5 μL of 10 mM Tris-HCl, pH 8, 1 mM EDTA, 2.5% SDS, 0.01% bromophenol blue, and incubated at 37° C. overnight under non-reducing conditions or under reducing conditions (with 5% of 2-mercaptoethanol). Each 1.0 μL of sample was then analyzed by SDS-polyacrylamide gel electrophoresis with a gradient gel of 10–15% acrylamide (Pharmacia Co.) and an electrophoresis-device (Fast System, Pharmacia Co.). The following molecular weight marker proteins were used to calculate molecular weight: phosphorylase b (94 kD), bovine serum albumin (67 kD), ovalbumin (43 kD), carbonic anhydrase (30 kD), trypsin inhibitor ([…]), and lactalbumin (14.4 kD). After electrophoresis, protein bands were visualized by silver stain using Phast Silver Stain Kit.

B1: osteoclastogenesis inhibitory factor (OCIF) (other)
chain: ETFPPKYLHYDEETSHQLLCDKCPPGTYLKQHCTAKWKTVCAPCPDHYYTDSWHTSDECLYCSPVCKELQYVKQECNRTHNRVCECKEGRYLEIEFCLKHRSCPPGFGVVQAGTPERNTVCKRCPDGFFSNETSSKAPCRKHTNCSVFGLLLTQKGNATHDNICSGNSESTQKCGIDVTLCEEAFFRFAVPTKFTPNWLSVLVDNLPGTKVNAESVERIKRQHSSQEQTFQLLKLWKHQNKDQDIVKKIIQDIDLCENSVQRHIGHANLTFEQLRSLMESLPGKKVGAEDIEKTIKACKPSDQILKLLSLWRIKNGDQDTLKGLMHALKHSKTYHFPKTVTQSLKKTIRFLHSFTMYKLYQKLFLEMIGNQVQSVKISCL
notes: Secreted glycoprotein, present as a 60 kD monomer and a 120 kD homodimer under non-reducing conditions; Natural OCIF from IMR-90 medium coated the plates in the hybridoma ELISA; Recombinant OCIF was the standard in the polyclonal EIA; Unaltered OCIF in 293/EBNA conditioned medium was used in the western blot; also called nOCIF; natural OCIF
On to B1, for which the binding result was “binds”.
